Test results taken from paper PMC9275217, “Improvement of Fusel Alcohol Production by Engineering of the Yeast Branched-Chain Amino Acid Aminotransaminase” (Applied and Environmental Microbiology, 2022).

T1: Bat1ΔN16^WT (Saccharomyces cerevisiae, UniProt P38891)
T1 construct: gene BAT1; first 16 residues (mitochondrial-targeting signal) removed; N-terminal His-tag (pET53-dest, tag not reported cut); E. coli BL21(DE3); dimer
T1 sequence (P38891 17-393): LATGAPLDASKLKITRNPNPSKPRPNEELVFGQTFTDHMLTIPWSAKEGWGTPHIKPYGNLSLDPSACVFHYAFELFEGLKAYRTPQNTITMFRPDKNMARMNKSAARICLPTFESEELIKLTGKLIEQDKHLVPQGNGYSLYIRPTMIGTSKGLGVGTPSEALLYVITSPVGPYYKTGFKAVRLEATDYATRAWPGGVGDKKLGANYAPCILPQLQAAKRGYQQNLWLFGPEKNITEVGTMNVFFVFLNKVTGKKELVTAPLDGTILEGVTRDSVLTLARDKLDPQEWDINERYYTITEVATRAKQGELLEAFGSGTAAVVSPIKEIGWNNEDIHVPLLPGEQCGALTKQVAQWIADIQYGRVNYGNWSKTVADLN

T2: Bat1ΔN16^WT (Saccharomyces cerevisiae, UniProt P38891, G333S)
T2 construct: gene BAT1; first 16 residues (mitochondrial-targeting signal) removed; N-terminal His-tag (pET53-dest, tag not reported cut); E. coli BL21(DE3); dimer
T2 sequence (P38891 17-393 G333S): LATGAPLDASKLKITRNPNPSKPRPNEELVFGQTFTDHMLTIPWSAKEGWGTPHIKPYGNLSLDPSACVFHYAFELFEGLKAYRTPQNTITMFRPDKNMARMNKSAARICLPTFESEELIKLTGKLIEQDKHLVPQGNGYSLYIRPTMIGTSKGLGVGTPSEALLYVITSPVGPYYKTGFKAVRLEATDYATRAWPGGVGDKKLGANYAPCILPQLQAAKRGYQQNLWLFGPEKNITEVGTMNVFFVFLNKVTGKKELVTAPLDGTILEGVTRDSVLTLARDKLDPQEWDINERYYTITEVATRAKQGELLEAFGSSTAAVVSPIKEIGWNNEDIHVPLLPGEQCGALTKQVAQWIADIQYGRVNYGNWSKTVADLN


Key:
Bat1ΔN16^WT [1] = target: T1, Bat1ΔN16^WT; test: NADH absorbance […] nm, coupled to glutamate dehydrogenase; format: biochemical; details: reverse reaction; 2 mM KG, 5 mM NAD+, 50 μM PLP, 200 mM potassium phosphate pH 8.5, 30°C; apparent
Bat1ΔN16^WT [2] = target: T2, Bat1ΔN16^WT; test: as above; format: biochemical; details: reverse reaction; 2 mM KG, 5 mM NAD+, 50 μM PLP, 200 mM potassium phosphate pH 8.5, 30°C; apparent
purified protein [3] = substrate: CC(C)[C@H](N)C(=O)O; test: purified protein; details: reverse reaction, 2 mM KG, 5 mM NAD+, 50 μM PLP, 200 mM potassium phosphate pH 8.5, 30°C, apparent
purified protein [4] = substrate: CC[C@H](C)[C@H](N)C(=O)O; test: purified protein; details: reverse reaction, 2 mM KG, 5 mM NAD+, 50 μM PLP, 200 mM potassium phosphate pH 8.5, 30°C, apparent
purified protein [5] = substrate: CC(C)C(=O)C(=O)O; test: purified protein; format: biochemical, Saccharomyces cerevisiae; details: forward reaction, 100 mM Glu, 50 μM PLP, 100 mM NH4Cl, 0.25 mM NADH, 200 mM potassium phosphate pH 8.0, 30°C, apparent
purified protein [6] = substrate: CC(C)CC(=O)C(=O)O; test: purified protein; format: biochemical, Saccharomyces cerevisiae; details: forward reaction, 100 mM Glu, 50 μM PLP, 100 mM NH4Cl, 0.25 mM NADH, 200 mM potassium phosphate pH 8.0, 30°C, apparent
purified protein [7] = substrate: CC[C@H](C)C(=O)C(=O)O; test: purified protein; format: biochemical, Saccharomyces cerevisiae; details: forward reaction, 100 mM Glu, 50 μM PLP, 100 mM NH4Cl, 0.25 mM NADH, 200 mM potassium phosphate pH 8.0, 30°C, apparent
purified protein [8] = substrate: CC(C)C[C@H](N)C(=O)O; test: purified protein; details: reverse reaction, 2 mM KG, 5 mM NAD+, 50 μM PLP, 200 mM potassium phosphate pH 8.5, 30°C, apparent

Molecule	Km (Bat1ΔN16^WT [1]) [mM]	Km (Bat1ΔN16^WT [2]) [mM]	Km (purified protein [3]) [µM]	kcat (purified protein [3]) [s⁻¹]	kcat/Km (purified protein [3]) [M⁻¹ s⁻¹]	Km (purified protein [4]) [µM]	kcat (purified protein [4]) [s⁻¹]	kcat/Km (purified protein [4]) [M⁻¹ s⁻¹]	Km (purified protein [5]) [µM]	kcat (purified protein [5]) [s⁻¹]	kcat/Km (purified protein [5]) [M⁻¹ s⁻¹]	Km (purified protein [6]) [µM]	kcat (purified protein [6]) [s⁻¹]	kcat/Km (purified protein [6]) [M⁻¹ s⁻¹]	Km (purified protein [7]) [µM]	kcat (purified protein [7]) [s⁻¹]	kcat/Km (purified protein [7]) [M⁻¹ s⁻¹]	Km (purified protein [8]) [µM]	kcat (purified protein [8]) [s⁻¹]	kcat/Km (purified protein [8]) [M⁻¹ s⁻¹]
CC(C)C[C@H](N)C(=O)O [Leu]	0.285 ± 0.0679	3.08 ± 1.42	–	–	–	–	–	–	–	–	–	–	–	–	–	–	–	–	–	–
Bat1ΔN16^WT (Saccharomyces cerevisiae S288C) (protein, first 16 residues (mitochondrial-targeting signal) removed; N-terminal His-tag (pET53-dest, tag not reported cut); E. coli BL21(DE3); dimer) LATGAPLDASKLKITRNPNPSKPRPNEELVFGQTFTDHMLTIPWSAKEGWGTPHIKPYGNLSLDPSACVFHYAFELFEGLKAYRTPQNTITMFRPDKNMARMNKSAARICLPTFESEELIKLTGKLIEQDKHLVPQGNGYSLYIRPTMIGTSKGLGVGTPSEALLYVITSPVGPYYKTGFKAVRLEATDYATRAWPGGVGDKKLGANYAPCILPQLQAAKRGYQQNLWLFGPEKNITEVGTMNVFFVFLNKVTGKKELVTAPLDGTILEGVTRDSVLTLARDKLDPQEWDINERYYTITEVATRAKQGELLEAFGSGTAAVVSPIKEIGWNNEDIHVPLLPGEQCGALTKQVAQWIADIQYGRVNYGNWSKTVADLN	–	–	454 ± 123	3.37	7420	220 ± 102	3.74	17000	298 ± 100	9.55 ± 1.92	32100	323 ± 101	15.4 ± 2.92	47700	218 ± 111	4.73 ± 1.29	21700	–	–	–
Bat1ΔN16^WT (Saccharomyces cerevisiae S288C; G333S) (protein, first 16 residues (mitochondrial-targeting signal) removed; N-terminal His-tag (pET53-dest, tag not reported cut); E. coli BL21(DE3); dimer) LATGAPLDASKLKITRNPNPSKPRPNEELVFGQTFTDHMLTIPWSAKEGWGTPHIKPYGNLSLDPSACVFHYAFELFEGLKAYRTPQNTITMFRPDKNMARMNKSAARICLPTFESEELIKLTGKLIEQDKHLVPQGNGYSLYIRPTMIGTSKGLGVGTPSEALLYVITSPVGPYYKTGFKAVRLEATDYATRAWPGGVGDKKLGANYAPCILPQLQAAKRGYQQNLWLFGPEKNITEVGTMNVFFVFLNKVTGKKELVTAPLDGTILEGVTRDSVLTLARDKLDPQEWDINERYYTITEVATRAKQGELLEAFGSSTAAVVSPIKEIGWNNEDIHVPLLPGEQCGALTKQVAQWIADIQYGRVNYGNWSKTVADLN	–	–	–	–	–	–	–	–	–	–	–	1570 ± 505	4.95 ± 0.945	3150	–	–	–	–	–	–
Bat2^WT (Saccharomyces cerevisiae S288C; G316S) (protein, N-terminal His-tag (pET53-dest, tag not reported cut); E. coli BL21(DE3); dimer) MTLAPLDASKVKITTTQHASKPKPNSELVFGKSFTDHMLTAEWTAEKGWGTPEIKPYQNLSLDPSAVVFHYAFELFEGMKAYRTVDNKITMFRPDMNMKRMNKSAQRICLPTFDPEELITLIGKLIQQDKCLVPEGKGYSLYIRPTLIGTTAGLGVSTPDRALLYVICCPVGPYYKTGFKAVRLEATDYATRAWPGGCGDKKLGANYAPCVLPQLQAASRGYQQNLWLFGPNNNITEVGTMNAFFVFKDSKTGKKELVTAPLDGTILEGVTRDSILNLAKERLEPSEWTISERYFTIGEVTERSKNGELLEAFGSSTAAIVSPIKEIGWKGEQINIPLLPGEQTGPLAKEVAQWINGIQYGETEHGNWSRVVTDLN	–	–	13300 ± 3440	1.4	106	3400 ± 1140	1.8	529	1730 ± 826	1.79 ± 0.521	1030	681 ± 189	5.42 ± 0.615	7960	308 ± 134	2.01 ± 0.282	6530	3890 ± 1060	1.61	414
Bat2^WT (Saccharomyces cerevisiae S288C) (protein, N-terminal His-tag (pET53-dest, tag not reported cut); E. coli BL21(DE3); dimer) MTLAPLDASKVKITTTQHASKPKPNSELVFGKSFTDHMLTAEWTAEKGWGTPEIKPYQNLSLDPSAVVFHYAFELFEGMKAYRTVDNKITMFRPDMNMKRMNKSAQRICLPTFDPEELITLIGKLIQQDKCLVPEGKGYSLYIRPTLIGTTAGLGVSTPDRALLYVICCPVGPYYKTGFKAVRLEATDYATRAWPGGCGDKKLGANYAPCVLPQLQAASRGYQQNLWLFGPNNNITEVGTMNAFFVFKDSKTGKKELVTAPLDGTILEGVTRDSILNLAKERLEPSEWTISERYFTIGEVTERSKNGELLEAFGSGTAAIVSPIKEIGWKGEQINIPLLPGEQTGPLAKEVAQWINGIQYGETEHGNWSRVVTDLN	–	–	511 ± 111	2.71	5300	119 ± 38.9	2.61	21900	180 ± 44.4	8.05 ± 1.02	44700	212 ± 61	11.6 ± 1.82	54700	150 ± 59.4	5.48 ± 1.04	36500	189 ± 60	2.3	12200
